± gives the uncertainty stated by the source.
Assay: abundance fitness (aPCA) (normalised: wild type 0, dead -1); higher = more abundant; growth selection in yeast, the domain comes from the species named
Settings: Homo sapiens

**Q.** For “SAFB-like transcription modulator K21S, Q9NWH9”, which abundance fitness is on record?
**A.** The abundance fitness was -0.198 ± 0.056.

**Q.** Which abundance fitness does the source give for “SAFB-like transcription modulator K21T, Q9NWH9” here?
**A.** The abundance fitness was -0.355 ± 0.064.

**Q.** For “SAFB-like transcription modulator K21V, Q9NWH9”, which abundance fitness is on record?
**A.** The abundance fitness was -0.375 ± 0.04.

**Q.** For “SAFB-like transcription modulator K21W, Q9NWH9”, which abundance fitness is on record?
**A.** The abundance fitness was -0.982 ± 0.12.

**Q.** Which abundance fitness does the source give for “SAFB-like transcription modulator K21Y, Q9NWH9” here?
**A.** The abundance fitness was -0.667 ± 0.076.

**Q.** With “SAFB-like transcription modulator K31A, Q9NWH9” as the substance, how does the abundance fitness read?
**A.** Its abundance fitness is -0.352 ± 0.049.

**Q.** For “SAFB-like transcription modulator K31C, Q9NWH9”, which abundance fitness is on record?
**A.** Its abundance fitness is -0.223 ± 0.06.

**Q.** For “SAFB-like transcription modulator K31E, Q9NWH9”, which abundance fitness is on record?
**A.** The abundance fitness was -0.219 ± 0.062.

**Q.** For “SAFB-like transcription modulator K31F, Q9NWH9”, which abundance fitness is on record?
**A.** The abundance fitness was -0.288 ± 0.037.

**Q.** Which abundance fitness does the source give for “SAFB-like transcription modulator K31G, Q9NWH9” here?
**A.** The abundance fitness was -0.859 ± 0.038.

**Q.** With “SAFB-like transcription modulator K31H, Q9NWH9” as the substance, how does the abundance fitness read?
**A.** The abundance fitness was -0.102 ± 0.083.

**Q.** For “SAFB-like transcription modulator K31I, Q9NWH9”, which abundance fitness is on record?
**A.** Its abundance fitness is 0.131 ± 0.064.

**Q.** Which abundance fitness does the source give for “SAFB-like transcription modulator K31L, Q9NWH9” here?
**A.** Its abundance fitness is -0.155 ± 0.042.

**Q.** For “SAFB-like transcription modulator K31M, Q9NWH9”, which abundance fitness is on record?
**A.** Its abundance fitness is -0.241 ± 0.068.

**Q.** For “SAFB-like transcription modulator K31N, Q9NWH9”, which abundance fitness is on record?
**A.** Its abundance fitness is -0.629 ± 0.075.

**Q.** For “SAFB-like transcription modulator K31P, Q9NWH9”, which abundance fitness is on record?
**A.** Its abundance fitness is -1.16 ± 0.075.

**Q.** Which abundance fitness does the source give for “SAFB-like transcription modulator K31Q, Q9NWH9” here?
**A.** Its abundance fitness is -0.069 ± 0.075.

**Q.** For “SAFB-like transcription modulator K31R, Q9NWH9”, which abundance fitness is on record?
**A.** Its abundance fitness is -0.184 ± 0.047.

**Q.** With “SAFB-like transcription modulator K31S, Q9NWH9” as the substance, how does the abundance fitness read?
**A.** Its abundance fitness is -0.613 ± 0.061.

**Q.** For “SAFB-like transcription modulator K31T, Q9NWH9”, which abundance fitness is on record?
**A.** Its abundance fitness is -0.143 ± 0.043.

**Q.** Which abundance fitness does the source give for “SAFB-like transcription modulator K31V, Q9NWH9” here?
**A.** Its abundance fitness is -0.056 ± 0.053.

**Q.** For “SAFB-like transcription modulator K31W, Q9NWH9”, which abundance fitness is on record?
**A.** The abundance fitness was -0.237 ± 0.053.

**Q.** Which abundance fitness does the source give for “SAFB-like transcription modulator K31Y, Q9NWH9” here?
**A.** Its abundance fitness is -0.213 ± 0.075.

**Q.** For “SAFB-like transcription modulator K35A, Q9NWH9”, which abundance fitness is on record?
**A.** The abundance fitness was -0.08 ± 0.072.

**Q.** For “SAFB-like transcription modulator K35C, Q9NWH9”, which abundance fitness is on record?
**A.** Its abundance fitness is -0.528 ± 0.23.

**Q.** Which abundance fitness does the source give for “SAFB-like transcription modulator K35D, Q9NWH9” here?
**A.** The abundance fitness was -0.046 ± 0.097.

**Q.** Which abundance fitness does the source give for “SAFB-like transcription modulator K35E, Q9NWH9” here?
**A.** Its abundance fitness is -0.013 ± 0.083.

**Q.** Which abundance fitness does the source give for “SAFB-like transcription modulator K35F, Q9NWH9” here?
**A.** Its abundance fitness is -0.267 ± 0.17.

**Q.** For “SAFB-like transcription modulator K35G, Q9NWH9”, which abundance fitness is on record?
**A.** The abundance fitness was 0.023 ± 0.051.

**Q.** Which abundance fitness does the source give for “SAFB-like transcription modulator K35I, Q9NWH9” here?
**A.** The abundance fitness was -0.067 ± 0.037.

**Q.** For “SAFB-like transcription modulator K35L, Q9NWH9”, which abundance fitness is on record?
**A.** Its abundance fitness is -0.44 ± 0.11.

**Q.** With “SAFB-like transcription modulator K35M, Q9NWH9” as the substance, how does the abundance fitness read?
**A.** Its abundance fitness is -0.035 ± 0.079.

**Q.** For “SAFB-like transcription modulator K35P, Q9NWH9”, which abundance fitness is on record?
**A.** Its abundance fitness is -0.943 ± 0.14.

**Q.** Which abundance fitness does the source give for “SAFB-like transcription modulator K35Q, Q9NWH9” here?
**A.** The abundance fitness was 0.052 ± 0.053.

**Q.** For “SAFB-like transcription modulator K35R, Q9NWH9”, which abundance fitness is on record?
**A.** Its abundance fitness is -0.023 ± 0.041.

**Q.** With “SAFB-like transcription modulator K35S, Q9NWH9” as the substance, how does the abundance fitness read?
**A.** The abundance fitness was -0.034 ± 0.07.

**Q.** With “SAFB-like transcription modulator K35T, Q9NWH9” as the substance, how does the abundance fitness read?
**A.** Its abundance fitness is -0.474 ± 0.13.

**Q.** For “SAFB-like transcription modulator K35V, Q9NWH9”, which abundance fitness is on record?
**A.** Its abundance fitness is -0.11 ± 0.042.

**Q.** For “SAFB-like transcription modulator K35W, Q9NWH9”, which abundance fitness is on record?
**A.** The abundance fitness was -0.163 ± 0.077.

**Q.** Which abundance fitness does the source give for “SAFB-like transcription modulator K35Y, Q9NWH9” here?
**A.** Its abundance fitness is -0.086 ± 0.37.

**Q.** With “SAFB-like transcription modulator K45A, Q9NWH9” as the substance, how does the abundance fitness read?
**A.** Its abundance fitness is -0.224 ± 0.068.

**Q.** With “SAFB-like transcription modulator K45C, Q9NWH9” as the substance, how does the abundance fitness read?
**A.** Its abundance fitness is -0.617 ± 0.052.

**Q.** With “SAFB-like transcription modulator K45D, Q9NWH9” as the substance, how does the abundance fitness read?
**A.** Its abundance fitness is -0.208 ± 0.037.

**Q.** Which abundance fitness does the source give for “SAFB-like transcription modulator K45E, Q9NWH9” here?
**A.** Its abundance fitness is -0.096 ± 0.038.

**Q.** With “SAFB-like transcription modulator K45F, Q9NWH9” as the substance, how does the abundance fitness read?
**A.** The abundance fitness was -0.55 ± 0.037.

**Q.** For “SAFB-like transcription modulator K45G, Q9NWH9”, which abundance fitness is on record?
**A.** The abundance fitness was -0.2 ± 0.066.

**Q.** With “SAFB-like transcription modulator K45H, Q9NWH9” as the substance, how does the abundance fitness read?
**A.** The abundance fitness was -0.372 ± 0.12.

**Q.** For “SAFB-like transcription modulator K45I, Q9NWH9”, which abundance fitness is on record?
**A.** The abundance fitness was -0.513 ± 0.079.

**Q.** With “SAFB-like transcription modulator K45L, Q9NWH9” as the substance, how does the abundance fitness read?
**A.** The abundance fitness was -0.731 ± 0.056.

**Q.** With “SAFB-like transcription modulator K45M, Q9NWH9” as the substance, how does the abundance fitness read?
**A.** The abundance fitness was -0.325 ± 0.076.

**Q.** With “SAFB-like transcription modulator K45N, Q9NWH9” as the substance, how does the abundance fitness read?
**A.** The abundance fitness was -0.334 ± 0.086.

**Q.** With “SAFB-like transcription modulator K45P, Q9NWH9” as the substance, how does the abundance fitness read?
**A.** The abundance fitness was -0.194 ± 0.077.

**Q.** Which abundance fitness does the source give for “SAFB-like transcription modulator K45Q, Q9NWH9” here?
**A.** Its abundance fitness is -0.099 ± 0.084.

**Q.** For “SAFB-like transcription modulator K45S, Q9NWH9”, which abundance fitness is on record?
**A.** Its abundance fitness is -0.25 ± 0.055.

**Q.** With “SAFB-like transcription modulator K45T, Q9NWH9” as the substance, how does the abundance fitness read?
**A.** The abundance fitness was -0.095 ± 0.053.

**Q.** Which abundance fitness does the source give for “SAFB-like transcription modulator K45V, Q9NWH9” here?
**A.** The abundance fitness was -0.399 ± 0.052.

**Q.** For “SAFB-like transcription modulator K45W, Q9NWH9”, which abundance fitness is on record?
**A.** The abundance fitness was -0.293 ± 0.054.

**Q.** With “SAFB-like transcription modulator K45Y, Q9NWH9” as the substance, how does the abundance fitness read?
**A.** Its abundance fitness is -0.005 ± 0.085.

**Q.** With “SAFB-like transcription modulator K53A, Q9NWH9” as the substance, how does the abundance fitness read?
**A.** The abundance fitness was 0.006 ± 0.071.

**Q.** Which abundance fitness does the source give for “SAFB-like transcription modulator K53C, Q9NWH9” here?
**A.** The abundance fitness was -0.231 ± 0.052.

**Q.** Which abundance fitness does the source give for “SAFB-like transcription modulator K53D, Q9NWH9” here?
**A.** Its abundance fitness is -0.931 ± 0.3.

**Q.** For “SAFB-like transcription modulator K53E, Q9NWH9”, which abundance fitness is on record?
**A.** Its abundance fitness is -0.351 ± 0.099.

**Q.** For “SAFB-like transcription modulator K53F, Q9NWH9”, which abundance fitness is on record?
**A.** Its abundance fitness is -0.291 ± 0.06.

**Q.** Which abundance fitness does the source give for “SAFB-like transcription modulator K53G, Q9NWH9” here?
**A.** Its abundance fitness is -0.35 ± 0.089.

**Q.** Which abundance fitness does the source give for “SAFB-like transcription modulator K53H, Q9NWH9” here?
**A.** The abundance fitness was -0.039 ± 0.14.

**Q.** With “SAFB-like transcription modulator K53I, Q9NWH9” as the substance, how does the abundance fitness read?
**A.** The abundance fitness was -0.369 ± 0.08.

**Q.** Which abundance fitness does the source give for “SAFB-like transcription modulator K53M, Q9NWH9” here?
**A.** The abundance fitness was -0.407 ± 0.12.

**Q.** With “SAFB-like transcription modulator K53N, Q9NWH9” as the substance, how does the abundance fitness read?
**A.** The abundance fitness was -0.295 ± 0.11.

**Q.** With “SAFB-like transcription modulator K53P, Q9NWH9” as the substance, how does the abundance fitness read?
**A.** Its abundance fitness is -0.778 ± 0.058.

**Q.** Which abundance fitness does the source give for “SAFB-like transcription modulator K53Q, Q9NWH9” here?
**A.** The abundance fitness was -0.159 ± 0.084.

**Q.** With “SAFB-like transcription modulator K53R, Q9NWH9” as the substance, how does the abundance fitness read?
**A.** The abundance fitness was 0.05 ± 0.059.

**Q.** With “SAFB-like transcription modulator K53S, Q9NWH9” as the substance, how does the abundance fitness read?
**A.** Its abundance fitness is -0.141 ± 0.043.

**Q.** Which abundance fitness does the source give for “SAFB-like transcription modulator K53T, Q9NWH9” here?
**A.** Its abundance fitness is -0.03 ± 0.084.

**Q.** For “SAFB-like transcription modulator K53V, Q9NWH9”, which abundance fitness is on record?
**A.** Its abundance fitness is -0.184 ± 0.051.

— the Human Domainome abundance scans (Beltran et al. 2025)
